# Earlier results in publication PMC12020373.
# Legend:
# Cys106 = Cys106 (UniProt position 106, LIAAICAGPTA)
# Cys145 = Cys145 (UniProt position 145, PILIPCHRVVC)
# His31 = His31 (UniProt position 31, TIGIGHLLTKS)
# Cys78 = Cys78 (UniProt position 79, YIDKVCELKKK)
# Cys46 [1] = target: Cys46 (UniProt position 47, TERPGCLDFKG)
# Cys65 = Cys65 (UniProt position 66, ELKGTCKEDAM)
# Cys17 = Cys17 (UniProt position 18, VKHLKCKPADE)
# Cys36 = Cys36 (UniProt position 37, YKQATCGDINT)
# Cys46 [2] = target: Cys46 (UniProt position 47, DFTFVCPTELG)
# Cys25 [3] = target: Cys25 (UniProt position 157, GSCGSCWAFSA)
# Cys29 = Cys29 (UniProt position 108, GSCGSCWAFGA)
# Cys283 [4] = target: Cys283 (UniProt position 283, GYVLTCPSNLG)
# Cys283 [5] = target: Cys283 (UniProt position 283, GYVLTCPANLG)
# His116 [6] = target: His116 (UniProt position 117, IIHVLHSRHPG)
# His36 [7] = target: His36 (UniProt position 37, RLFKSHPETLE)
# His113 [8] = target: His113 (UniProt position 114, SEAIIHVLHSR)
# His81 = His81 (UniProt position 82, LKKKGHHEAEL)
# His48 = His48 (UniProt position 49, FDRFKHLKTEA)
# His12 = His12 (UniProt position 13, WQLVLHVWAKV)
# His36 [9] = target: His36 (UniProt position 37, RLFTGHPETLE)
# His119 = His119 (UniProt position 120, VLHSKHPGDFG)
# His113 [10] = target: His113 (UniProt position 114, SDAIIHVLHSK)
# His116 [11] = target: His116 (UniProt position 117, IIHVLHSKHPG)
# Cys125 = Cys125 (UniProt position 126, PGDFGCDAQGA)
# Cys126 = Cys126 (UniProt position 127, GDFGACAQGAM)
# Cys124 = Cys124 (UniProt position 125, HPGDFCADAQG)
# Cys25 [12] = target: Cys25 (UniProt position 158, GSCGSCWAFSA)
# Cys403 = Cys403 (UniProt position 403, RPVIHCRAGVG)
# Cys215 = Cys215 (UniProt position 215, PVVVHCSAGIG)
# His83 = His83 (UniProt position 83, ITQWIHNWKKR)
# His127 = His127 (UniProt position 127, KGHAGHPENER)
# His124 = His124 (UniProt position 124, EWVKGHAGHPE)
# His62 = His62 (UniProt position 62, EALKEHCEVIL)
# His46 = His46 (UniProt position 128, TPETKHPKKGV)
# His8 = His8 (UniProt position 90, STKKLHKEPAT)
# Cys32 [13] = target: Cys32 (UniProt position 33, FWAEWCGPCKM)
# His43 = His43 (UniProt position 43, IKPFFHSLSEK)
# Cys32 [14] = target: Cys32 (UniProt position 32, FSATWCGPCKM)
# Cys40 = Cys40 (UniProt position 40, FSASWCPPCRG)
# Cys88 = Cys88 (UniProt position 88, ADGSICLDILQ)
substance,measurement,setting,value
DJ-1 (PARK7) (Homo sapiens),pKa,Cys106,5.4
O6-alkylguanine-DNA alkyltransferase (AGT/MGMT) (Homo sapiens),pKa,Cys145,5.3
T4 lysozyme (PDB 2LZM) (Enterobacteria phage T4 (inferred)),pKa,His31,9.1
acyl-CoA-binding protein (PDB 1NTI) E78C (Bos taurus (inferred); E78C),pKa,Cys78,9.6
acyl-CoA-binding protein (PDB 1NTI) M46C (Bos taurus (inferred); M46C),pKa,Cys46 [1],8.2
acyl-CoA-binding protein (PDB 1NTI) S65C (Bos taurus (inferred); S65C),pKa,Cys65,9.0
acyl-CoA-binding protein (PDB 1NTI) T17C (Bos taurus (inferred); T17C),pKa,Cys17,9.8
acyl-CoA-binding protein (PDB 1NTI) V36C (Bos taurus (inferred); V36C),pKa,Cys36,9.5
alkyl hydroperoxide reductase C (peroxiredoxin AhpC) (Salmonella enterica serovar Typhimurium (inferred; article says only 'bacterial')),pKa,Cys46 [2],5.9
alpha1-antitrypsin (Homo sapiens),pKa,Cys210,6.9
caricain (papaya protease omega) (Carica papaya),pKa,Cys25 [3],2.9
cathepsin B (Rattus norvegicus),pKa,Cys29,3.6
methionine sulfoxide reductase A (MsrA) (Mus musculus),pKa,Cys51,7.2
methionine sulfoxide reductase A E115Q (Mus musculus; E115Q),pKa,Cys51,8.2
muscle creatine kinase (Homo sapiens),pKa,Cys283 [4],5.6
muscle creatine kinase S285A (Homo sapiens; S285A),pKa,Cys283 [5],6.7
myoglobin (PDB 1A6K) (Physeter macrocephalus (sperm whale; inferred)),pKa,His116 [6],6.70
same,pKa,His36 [7],7.98
same,pKa,His113 [8],5.51
same,pKa,His81,6.88
same,pKa,His48,5.55
same,pKa,His12,6.49
myoglobin (PDB 1DWR) (Equus caballus (horse; inferred)),pKa,His36 [9],7.8
same,pKa,His81,6.94
same,pKa,His119,6.56
same,pKa,His113 [10],5.87
same,pKa,His116 [11],6.79
myoglobin A125C (Physeter macrocephalus (sperm whale); A125C),pKa,Cys125,8.4
myoglobin D126C (Physeter macrocephalus (sperm whale); D126C),pKa,Cys126,8.1
myoglobin G124C (Physeter macrocephalus (sperm whale); G124C),pKa,Cys124,6.5
papain (Carica papaya),pKa,Cys25 [12],3.3
protein tyrosine phosphatase YopH (Yersinia (species not stated; Y. enterocolitica for 1YPT to my knowledge)),pKa,Cys403,4.7
protein-tyrosine phosphatase 1B / PTP1 (Homo sapiens for the listed structure; the pKa source title says only 'mammalian' PTP1),pKa,Cys215,5.6
ribonuclease HI (Escherichia coli),pKa,His83,5.5
same,pKa,His127,7.9
same,pKa,His124,7.1
same,pKa,His62,7.0
staphylococcal nuclease (PDB 1EY0) (Staphylococcus aureus (inferred)),pKa,His46,5.86
same,pKa,His8,6.52
thiol-disulfide oxidoreductase ResA (Bacillus subtilis (inferred)),pKa,Cys35,8.8
thiol:disulfide interchange protein DsbA (Escherichia coli (inferred)),pKa,Cys28,3.3
thioredoxin (Escherichia coli),pKa,Cys32 [13],7.3
thioredoxin (Homo sapiens),pKa,His43,5.5
same,pKa,Cys32 [14],6.3
tryparedoxin (Trypanosoma brucei (inferred from PDB 1O73)),pKa,Cys40,7.2
ubiquitin-conjugating enzyme E2 (PDB 1JAS; HsUbc2b) (Homo sapiens (inferred)),pKa,Cys88,10.2
ubiquitin-conjugating enzyme Ubc13 (PDB 1JBB) (Saccharomyces cerevisiae (inferred)),pKa,Cys85,11.1
ubiquitin-conjugating enzyme UbcH10 (Homo sapiens),pKa,Cys85,10.9
